Laboratory results reported in the supplement of paper PMC9170038.

System: MS2 coat protein
Test: apparent KD of MS2 coat protein; higher = weaker reporter binding
Conditions: Eterna round: R107
Method in brief: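 Values are apparent KD, taken as the median for each design of fits to normalised binding curves from individual clusters. The designed RNA switches were transcribed on-chip from Illumina sequencing clusters and exposed to SNAP-549-labelled MS2 coat protein at twofold increasing amounts from 0.7 or 1.5 nM to 3 µM. Titration used 100 mM Tris-HCl pH 7.5, 80 mM KCl and 4 mM MgCl2, without or with constant ligand.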

[1] = input ligand: theophylline 20 uM
[2] = input ligand: theophylline 2 mM
[3] = input ligand: tryptophan 2.4 mM

Sequence	apparent KD of MS2 coat protein (input ligand: arginine 13.2 mM) [nM]	apparent KD of MS2 coat protein (input ligand: none) [nM]	apparent KD of MS2 coat protein [1] [nM]	apparent KD of MS2 coat protein [2] [nM]	apparent KD of MS2 coat protein [3] [nM]
GCAUCCUAGUCGGCCGCCACUGGAUGUACCCAGUGCUGGUACAAACAUGAGGAUCACCCAUGUACCAGGACCGGGACUAGGAUGC [(Trp1)-(MT2)''-(T1)'-(MT2)'-(Ms2)-(Trp2)_Design3]	23.6	12.7	16.4	12.3	9.93
GCAUGUUGGUGGUAUCUGCGAAGGCGGAAUCGAGGACCGGUACGGCCGCCACUCGGCGACAUGAGGAUCACCCAUGUGGUUAGGA [Exclusion - Tryptophan A (Freestyle 8)]	18.6	238	170	658	203
GCCAGACAUGAGGAUCACCCAUGUAGCGAUACCAGCUCUGUUGUGAGCCCUUGGCAGCGCACUGGCAUCGCGGGUGAUCCUGCAU [(T)''-(Ms2)-(Theo)-(T)'-(M)'-(M)''_Design3]	15.1		137		33.1
GCCGCGGCCGCGAUACACAUGGGUAUGUAACGAGGACCGGUACGGCCGCCACUCGAGAUAAUGUACAUGAGGAUCACCCAUGUAC [Exclusion Tryp A GF12]	10.3		15.1	12.8	
GCCGCGGCCGCGAUACACAUGGGUGUGUAACGAGGACCGGUACGGCCGCCACUCGAGAUGGUGUACAUGAGGAUCACCCAUGUAC [Exclusion Tryp A GF14]	10.5	14.5	21.5	17.4	13.4
GCGAUACGUACUGAUACCAGAGACAUGAGGAUCACCCAUGUCCCAUGAUCAUACCUCAGACUCCCUUGGCAGCAGGAUAAGUGAG [Exclusion Theophylline B GF2]	11.3		15.1		12
GCGUUGGUCGGAAGGAGCGACAUGAGGAUCACCCAUGUCUCCCGUUAUGGGAGUUCCUUAGGUCAGGUAGGUCGCCGACUGACGC [#1 Exclusion - Arginine B Attempt #20 (Inspired by Omei)]	96.1	209	193	150	143
GCUACAUGAGGAUCACCCAUGUAUGCGAGCCGAGGACCGGUACGGCCGCCACUCGCUUAACAUGAGGAUCACCCAUGUUGCUCGG [SSTA DOUBLE!!! :-D #17]	38.9		77.8	55.1	
GCUAGGUCAUCGGCCGCCACUAACGAUGGCUCCGACAUGAGGAUCACCCAUGUGCCACAUGCGCAUAGGACCGGGAUGACCUAGC [SSTB NP+V+V2 #2]	16.8		22.7	19.8	
GCUAGGUCUACGGCCGCCACUAGACGUGGGUUUAACAUGAGGAUCACCCAUGUGCUACAGGCGCAUAGGACCGGGUAGACCUAGC [SSTB NP+V+V2 #10 +-Same Structure]	532	414	713	928	51.3
GCUAGUGGCAGAAGGAGCGACAUUUUAAGUGGUCGAUACAUGAGGAUCACCCAUGUACUAUGUCAGGUAGGUCGCUGCCACUAGC [EAB NP+V+V2 #3 +-Same Structure]	39.1	34.8	38.8	42.9	34
GCUAGUGGCAGAAGGAGCGAGGCGACAUACGGGUACAUGAGGAUCACCCAUGUGGUGUGUCCUCAGGUAGGUCGCUGCCACUAGC [SSAB NP+V+V2 #12]	134	74.7	152	145	521
GCUAGUGGCAGAAGGAGCGAGGCUACAUACGGGUACAUGAGGAUCACCCAUGUGGUGUGUACUCAGGUAGGUCGCUGCCACUAGC [SSAB NP+V+V2 #13 Same Structure]	193	921	754	977	467
GCUGCAGCUACGGCCGCCACUGUUACGUGAGACAUGAGGAUCACCCAUGUUGAUGUUUUACAGAAUAGGACCGGGUAGUUGUAGU [E 1.1]	8.84		11.3	9.87	
GCUGCCAUACGAAGGAGCGCUGGUGUAGUGCGGCGAACAUGAGGAUCACCCAUGUGGCAGCAGCAGGUAGGUCGCGUAUGGCAGC [EAB #14]	12.3	11.2	14.6	12.6	11
GCUGGACUUUCGGCCGCCACUGAGAGAGUCGUGUGAACAUGAGGAUCACCCAUGUAAUAUAUAUACAGGACCGGGAGGGUUGUGC [4.P]	11.2		14.7	11.6	
GCUGUAAGUGCAGAUACCAGCAAGUGAUAUUUCAUAUGACAUGAGGAUCACCCAUGUAACUGCCCUUGGCAGCUGCACUUACAGC [SSTHB #10]	114		122		241
GGAAAAGAAAGAAAAGAAAUCCCUCCCUCCCGAGGACCGGUACGGCCGCCACUCGCCCUCCCUCCCACAUGAGGAUCACCCAUGU [Exclusion - Trytophan A]	23.7		31.3	27.8	
GGACUAACCAGAAGGAGCGACACAAAGCAGAAACUGCAUCCUCCGCACGAGGAUCACCCGUGUCAGGUAGGUCGCUGGUUAGUCG [ArgBX 28]	54	50.2	57	50.4	41.7

Sequence	apparent KD of MS2 coat protein (input ligand: arginine 13.2 mM) [nM]	apparent KD of MS2 coat protein (input ligand: none) [nM]	apparent KD of MS2 coat protein [1] [nM]	apparent KD of MS2 coat protein [2] [nM]	apparent KD of MS2 coat protein [3] [nM]
GGACUAACCAGAAGGAGCGACACGCAGAAACUGCAAAAUCCUCCACACGAGGAUCACCCGUGUCAGGUAGGUCGCUGGUUAGUCG [ArgXB 16 #Zipper #MS2Left #StaticStem #Blueprint]	44.6	75.3	83.4	86.1	53.8
GGACUAACCAGAAGGAGCGACGCAAAGCAGAAACUGCAUCCUCCGCACGAGGAUCACCCGUGUCAGGUAGGUCGCUGGUUAGUCG [ArgBX 28]	18.8	17.7	24.7	26.3	21.7
GGACUAACCAGAAGGAGCGACGCGCAGAAACUGCAAAAUCCUCCGCACGAGGAUCACCCGUGUCAGGUAGGUCGCUGGUUAGUCG	21.9	29.6	34.5	32.6	27.7
GGACUAACCAGAAGGAGCGACGCGCAGAAACUGCAAUUUCCUCCACACGAGGAUCACCCGUGUCAGGUAGGUCGCUGGUUAGUCG	15	17.4	18.7	17.6	16.6
GGACUAACCAGAAGGAGCGGCACAGCAGAAACUGCAAAUCCUCCGCACGAGGAUCACCCGUGUCAGGUAGGUCGCUGGUUAGUCG [ArgBX 28]	33.5	37.1	55.4	49.4	38.4
GGACUAACCAGAAGGAGCGGCGCGCAGAAACUGCAAAUUCCUCCGCACGAGGAUCACCCGUGUCAGGUAGGUCGCUGGUUAGUCG [ArgBX 28]	14.2	14.2	17.9	16.6	17.5
GGACUAACCAGAAGGAGCGGCGCGCAGAAACUGCAAUUUCCUCCACACGAGGAUCACCCGUGUCAGGUAGGUCGCUGGUUAGUCG [ArgBX 29]	13.1	11.4	15.1	12.9	12.3
GGAGGGACCAGAAGGAGCGACAUGAGGAUCACCCAUGUCUCCCGUUAUGGGAGUUCUUUAGGUCAGGUAGGUCGCUGGUCCCUCC [#1 Exclusion - Arginine B Attempt #6 (Inspired by Omei)]	55.7	158	87.3	138	86.1
GGAGGUACCCGAAGGAGCGACAUGAGGAUCACCCAUGUCUCCCGUUAUGGGAGUUCUUUAGGUCAGGUAGGUCGCGGGUACCUCC [#1 Exclusion - Arginine B Attempt #2 (Inspired by Omei)]	79.3	97.7	114	202	97
GGAGGUGAGAGAAGGAGCGGAAGUUUCGUUACAACAUGAGGAUCACCCAUGUAACGUUUAGUCCAGGUAGGUCGCUCUCGGGCGG [jbbgmullin]	19.2	16.3	25.2	30.7	26.9
GGAUAGGACAGAAGGAGCGACAUGAGGAUCACCCAUGUGGAUCAACGACGAAAGUCGCCAUGUCAGGUAGGUCGCUGUCCUAUCG [ArgXB 8 #MS2Gate #StaticStem #MS2LeftOffAptamer]	139	511	549	969	918
GGAUAUAGGGAACCGUAUCCGAAACCUGAAGGAGCGGCCGAAAGGCCAGGUAGGUCGCGGGAACAUGAGGAUCACCCAUGUAUUC [dancer]	31.1	57.3	71.8	59.2	55.4
GGAUGCGGCACGGCCGCCACUGCGGUGGUGUGACAUGAGGAUCACCCAUGUUGUCAUGCGGCCCUUAGGACCGGGUGGCGUUUCC [#1 Exclusion - Tryptophan B Attempt #20 (HarryS)]	38	56.7	73.6	66.7	62.9
GGAUUAGAGGCGGCCGCCACUGGAACAUGAGGAUCACCCAUGUAGUGCAUGUAAUUAACCUCGAUCAGGACCGGGCCGAUAGUCA [Exclusion - Tryptophan B / A]	51.9		85.2	67.2	
GGCACAUAGUCGGCCGCCACUAGGCUGUAGUGGGAGGACAUGAGGAUCACCCAUGUAUUUGGUACUAGGACCGGGACUAUGUGCC [Lion]	62.3	191	259	274	258
GGCACAUAGUCGGCCGCCACUAGUAUAAGAUGGAAUAACAUGAGGAUCACCCAUGUAAAAGGGACUAGGACCGGGACUAUGUGCC [Rat]	12.2	13	18.2	15.4	12.5
GGCACAUAGUCGGCCGCCACUAGUGGGAAAUGGGAGAACAUGAGGAUCACCCAUGUAUAAUAGCCUAGGACCGGGACUAUGUGCC [Elk]	64.2	188	227	113	55.3
GGCACAUAGUCGGCCGCCACUAGUGGGAAAUGGGAGAACAUGAGGAUCACCCAUGUUGCGUAGCCUAGGACCGGGACUAUGUGCC [Hippopotamus]	29.1	30.1	37.6	33.2	35
